Data taken from article PMC2843198 (The Journal of Biological Chemistry, 2010).

Molecular target: the molecule itself
Assay: SEC

B1: TAP-tagged Fun30 (Function unknown now 30) (enzyme, S. cerevisiae, UniProt P31380 1-1131, looked up)
chain: MSGSHSNDEDDVVQVPETSSPTKVASSSPLKPTSPTVPDASVASLRSRFTFKPSDPSEGAHTSKPLPSGSPEVALVNLAREFPDFSQTLVQAVFKSNSFNLQSARERLTRLRQQRQNWTWNKNASPKKSETPPPVKKSLPLANTGRLSSIHGNINNKSSKITVAKQKTSIFDRYSNVINQKQYTFELPTNLNIDSEALSKLPVNYNKKRRLVRADQHPIGKSYESSATQLGSAREKLLANRKYGRHANDNDEEEEESMMTDDDDASGDDYTESTPQINLDEQVLQFINDSDIVDLSDLSDTTMHKAQLIASHRPYSSLNAFVNTNFNDKDTEENASNKRKRRAAASANESERLLDKITQSIRGYNAIESVIKKCSSYGDLVTSQMKKWGVQVEGDNSELDLMNLGEDDDDDNDDGNNDNNNSNNNNTAGADATSKEKEDTKAVVEGFDETSAEPTPAPAPAPVERETKRIRNTTKPKVVEDEDDDVDLEAIDDELPQSEHEDDDYEEEDEDYNDEEEDVEYDDGDDDDDDDDEFVATRKNTHVISTTSRNGRKPIVKFFKGKPRLLSPEISLKDYQQTGINWLNLLYQNKMSCILADDMGLGKTCQVISFFAYLKQINEPGPHLVVVPSSTLENWLREFQKFAPALKIEPYYGSLQEREELRDILERNAGKYDVIVTTYNLAAGNKYDVSFLKNRNFNVVVYDEGHMLKNSTSERFAKLMKIRANFRLLLTGTPLQNNLKELMSLLEFIMPNLFISKKESFDAIFKQRAKTTDDNKNHNPLLAQEAITRAKTMMKPFILRRRKDQVLKHLPPKHTHIQYCELNAIQKKIYDKEIQIVLEHKRMIKDGELPKDAKEKSKLQSSSSKNLIMALRKASLHPLLFRNIYNDKIITKMSDAILDEPAYAENGNKEYIKEDMSYMTDFELHKLCCNFPNTLSKYQLHNDEWMQSGKIDALKKLLKTIIVDKQEKVLIFSLFTQVLDILEMVLSTLDYKFLRLDGSTQVNDRQLLIDKFYEDKDIPIFILSTKAGGFGINLVCANNVIIFDQSFNPHDDRQAADRAHRVGQTKEVNITTLITKDSIEEKIHQLAKNKLALDSYISEDKKSQDVLESKVSDMLEDIIYDENSKPKGTKE
- stoichiometry N: 2
